B1: MATN2 (parent)
chain: FSLKTFKRKSEVERAVKRMRHLST

Variants of: B1
Test: protein stability index of a GFP-peptide fusion (GPS, HEK-293T) (PSI 1-6); higher = more stable
Conditions: c terminus: a fixed tail appended
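Note: lentivirally expressed fusions sorted by FACS into six bins by GFP to DsRed ratio, PSI derived from sequencing read proportions per bin multiplied by bin number.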

Row | Variant | protein stability index
1 | FSLKTFVRKSEVERAVKRMRHLST | 2.91
2 | FSLKTFWRKSEVERAVKRMRHLST | 1.9
3 | FSLKTFFRKSEVERAVKRMRHLST | 1.83
4 | FSLKTFCRKSEVERAVKRMRHLST | 1.63
5 | FSLKTFNRKSEVERAVKRMRHLST | 2.76
6 | FSLKTFPRKSEVERAVKRMRHLST | 2.05
7 | FSLKTFDRKSEVERAVKRMRHLST | 2.51
8 | FSLKTFRRKSEVERAVKRMRHLST | 2.45
9 | FSLKTFARKSEVERAVKRMRHLST | 1.78
10 | FSLKTFKRKNEVERAVKRMRHLST | 3.07
11 | FSLKTFKRKKEVERAVKRMRHLST | 2.21
12 | FSLKTFKRKDEVERAVKRMRHLST | 2.05
13 | FSLKTFKRKAEVERAVKRMRHLST | 1.72
14 | FSLKTFKRKLEVERAVKRMRHLST | 1.39
15 | FSLKTFKRKGEVERAVKRMRHLST | 1.99
16 | FSLKTFKRKMEVERAVKRMRHLST | 1.91
17 | FSLKTFKRKTEVERAVKRMRHLST | 2.73
18 | FSLKTFKRKVEVERAVKRMRHLST | 3.04
19 | FSLKTFKRKQEVERAVKRMRHLST | 2.26
20 | FSLKTFKRKIEVERAVKRMRHLST | 1.49
21 | FSLKTFKRKREVERAVKRMRHLST | 2.46
22 | FSLKTFKRKHEVERAVKRMRHLST | 2.77
23 | FSLKTFKRKYEVERAVKRMRHLST | 2.3
24 | FSLKTFKRKEEVERAVKRMRHLST | 2.42

Row | Variant | protein stability index
25 | FSLKTFKRKPEVERAVKRMRHLST | 2.62
26 | FSLKTFKRKFEVERAVKRMRHLST | 1.77
27 | FSLKTFKRKWEVERAVKRMRHLST | 2.88
28 | FSLKTQKRKSEVERAVKRMRHLST | 2.85
29 | FSLKTHKRKSEVERAVKRMRHLST | 2.94
30 | FSLKTVKRKSEVERAVKRMRHLST | 2.96
31 | FSLKTMKRKSEVERAVKRMRHLST | 2.29
32 | FSLKTWKRKSEVERAVKRMRHLST | 1.16
33 | FSLKTLKRKSEVERAVKRMRHLST | 2.55
34 | FSLKTIKRKSEVERAVKRMRHLST | 2.14
35 | FSLKTPKRKSEVERAVKRMRHLST | 2.67
36 | FSLKTKKRKSEVERAVKRMRHLST | 3.47
37 | FSLKTAKRKSEVERAVKRMRHLST | 2.87
38 | FSLKTTKRKSEVERAVKRMRHLST | 2.75
39 | FSLKTEKRKSEVERAVKRMRHLST | 3.27
40 | FSLKTCKRKSEVERAVKRMRHLST | 2.28
41 | FSLKTDKRKSEVERAVKRMRHLST | 2.43
42 | FSLKTRKRKSEVERAVKRMRHLST | 2.73
43 | FSLKTNKRKSEVERAVKRMRHLST | 2.38
44 | FSLKTYKRKSEVERAVKRMRHLST | 3.29
45 | FSLKTFKRGSEVERAVKRMRHLST | 2.46
46 | FSLKTFKRASEVERAVKRMRHLST | 1.78
47 | FSLKTFKRRSEVERAVKRMRHLST | 1.84
48 | FSLKTFKRWSEVERAVKRMRHLST | 3.18

Row | Variant | protein stability index
49 | FSLKTFKRISEVERAVKRMRHLST | 1.91
50 | FSLKTFKRQSEVERAVKRMRHLST | 2.52
51 | FSLKTFKRMSEVERAVKRMRHLST | 2.98
52 | FSLKTFKRVSEVERAVKRMRHLST | 1.25
53 | FSLKTFKRTSEVERAVKRMRHLST | 2.09
54 | FSLKTFKRSSEVERAVKRMRHLST | 2.58
55 | FSLKTFKRYSEVERAVKRMRHLST | 2.12
56 | FSLKTFKRCSEVERAVKRMRHLST | 2.91
57 | FSLKTFKRDSEVERAVKRMRHLST | 2.46
58 | FSLKTFKRNSEVERAVKRMRHLST | 1.65
59 | FSLKTFKRPSEVERAVKRMRHLST | 1.84
60 | FSLKTFKRFSEVERAVKRMRHLST | 2.25
61 | FSLKTFKRESEVERAVKRMRHLST | 1.62
62 | FLLKTFKRKSEVERAVKRMRHLST | 1.55
63 | FELKTFKRKSEVERAVKRMRHLST | 2.51
64 | FGLKTFKRKSEVERAVKRMRHLST | 3.21
65 | FQLKTFKRKSEVERAVKRMRHLST | 3.07
66 | FALKTFKRKSEVERAVKRMRHLST | 1.8
67 | FTLKTFKRKSEVERAVKRMRHLST | 1.99
68 | FCLKTFKRKSEVERAVKRMRHLST | 1.5
69 | FMLKTFKRKSEVERAVKRMRHLST | 2.5
70 | FPLKTFKRKSEVERAVKRMRHLST | 2.42
71 | FHLKTFKRKSEVERAVKRMRHLST | 1.99
72 | FNLKTFKRKSEVERAVKRMRHLST | 2.84

Row | Variant | protein stability index
73 | FYLKTFKRKSEVERAVKRMRHLST | 1.82
74 | FKLKTFKRKSEVERAVKRMRHLST | 1.95
75 | FVLKTFKRKSEVERAVKRMRHLST | 3.07
76 | FDLKTFKRKSEVERAVKRMRHLST | 2.77
77 | FRLKTFKRKSEVERAVKRMRHLST | 2.36
78 | FWLKTFKRKSEVERAVKRMRHLST | 1.39
79 | FSLKTFKLKSEVERAVKRMRHLST | 2.48
80 | FSLKTFKQKSEVERAVKRMRHLST | 2.49
81 | FSLKTFKIKSEVERAVKRMRHLST | 2.12
82 | FSLKTFKTKSEVERAVKRMRHLST | 2.47
83 | FSLKTFKPKSEVERAVKRMRHLST | 2.7
84 | FSLKTFKDKSEVERAVKRMRHLST | 2.85
85 | FSLKTFKKKSEVERAVKRMRHLST | 2.33
86 | FSLKTFKVKSEVERAVKRMRHLST | 2.15
87 | FSLKTFKMKSEVERAVKRMRHLST | 3.23
88 | FSLKTFKGKSEVERAVKRMRHLST | 2.43
89 | FSLKTFKCKSEVERAVKRMRHLST | 2.27
90 | FSLKTFKFKSEVERAVKRMRHLST | 1.43
91 | FSLKTFKSKSEVERAVKRMRHLST | 1.93
92 | FSLKTFKYKSEVERAVKRMRHLST | 2.29
93 | FSLKTFKNKSEVERAVKRMRHLST | 2.17
94 | FSLKTFKHKSEVERAVKRMRHLST | 3.3

From the supplement of paper PMC10567573
